Experimental data as given in patent US20090276160A1.

How the values were obtained:
Assay in all cases: cell-based or functional assay
[1] = molecular target: Bovine trypsin (Worthington) (bovine) (UniProt P00760)
[2] = molecular target: Tissue factor/factor VIIa complex: human tissue factor (residues 1-219) with human recombinant FVIIa (human) (UniProt P13726)
[3] = molecular target: Factor Xa (Haematologic Technologies) (human) (UniProt P00742)
[4] = molecular target: T1, Matriptase (residues 615-855) (human) (UniProt Q9Y5Y6)
T1 sequence (looked up): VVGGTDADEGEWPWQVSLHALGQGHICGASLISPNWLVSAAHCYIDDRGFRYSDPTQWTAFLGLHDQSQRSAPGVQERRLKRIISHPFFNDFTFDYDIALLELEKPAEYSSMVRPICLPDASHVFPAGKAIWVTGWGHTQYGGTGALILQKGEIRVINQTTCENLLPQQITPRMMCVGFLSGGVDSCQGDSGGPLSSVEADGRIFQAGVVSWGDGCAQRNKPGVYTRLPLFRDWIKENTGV

[5] = molecular target: Hepatocyte growth factor activator (HGFA), activated 34 kDa short form, residues Val373 to Ser655 with a C-terminal poly-histidine tag (human) (UniProt Q04756)
Sequence of Hepatocyte growth factor activator (HGFA), activated 34 kDa short form, residues Val373 to Ser655 with a C-terminal poly-histidine tag (human) (Q04756 373-407, chain 1 of 2): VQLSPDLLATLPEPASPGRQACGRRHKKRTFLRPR
Sequence of Hepatocyte growth factor activator (HGFA), activated 34 kDa short form, residues Val373 to Ser655 with a C-terminal poly-histidine tag (human) (Q04756 408-655, chain 2 of 2): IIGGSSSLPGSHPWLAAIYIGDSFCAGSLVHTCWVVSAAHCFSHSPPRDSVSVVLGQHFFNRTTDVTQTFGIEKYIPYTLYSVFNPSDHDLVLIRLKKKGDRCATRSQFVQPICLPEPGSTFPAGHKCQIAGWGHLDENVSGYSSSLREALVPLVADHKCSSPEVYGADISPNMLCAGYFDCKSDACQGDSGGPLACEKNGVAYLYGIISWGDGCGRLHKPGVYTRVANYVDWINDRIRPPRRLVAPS

[6] = molecular target: Plasma kallikrein (American Diagnostica) (human) (UniProt P03952)
Sequence of Plasma kallikrein (American Diagnostica) (human) (P03952 20-638 limits assumed): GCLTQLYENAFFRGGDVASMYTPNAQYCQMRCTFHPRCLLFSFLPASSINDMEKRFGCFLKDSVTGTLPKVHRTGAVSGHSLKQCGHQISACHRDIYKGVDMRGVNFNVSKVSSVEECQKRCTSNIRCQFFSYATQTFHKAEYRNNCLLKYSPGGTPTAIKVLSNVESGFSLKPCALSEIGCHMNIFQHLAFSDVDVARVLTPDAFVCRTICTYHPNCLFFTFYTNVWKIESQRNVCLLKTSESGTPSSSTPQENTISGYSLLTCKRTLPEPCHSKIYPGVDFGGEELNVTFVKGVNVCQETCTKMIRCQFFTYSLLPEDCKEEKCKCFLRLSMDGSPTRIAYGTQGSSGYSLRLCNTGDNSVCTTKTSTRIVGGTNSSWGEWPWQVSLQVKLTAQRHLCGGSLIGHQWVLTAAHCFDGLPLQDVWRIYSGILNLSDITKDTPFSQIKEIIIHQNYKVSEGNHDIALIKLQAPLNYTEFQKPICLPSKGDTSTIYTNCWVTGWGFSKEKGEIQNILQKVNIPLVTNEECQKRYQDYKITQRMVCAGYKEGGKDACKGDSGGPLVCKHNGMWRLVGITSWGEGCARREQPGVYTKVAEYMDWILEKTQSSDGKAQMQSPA

[7] = molecular target: Chymotrypsin (Sigma) (human) (UniProt P17538)
Sequence of Chymotrypsin (Sigma) (human) (P17538 19-263): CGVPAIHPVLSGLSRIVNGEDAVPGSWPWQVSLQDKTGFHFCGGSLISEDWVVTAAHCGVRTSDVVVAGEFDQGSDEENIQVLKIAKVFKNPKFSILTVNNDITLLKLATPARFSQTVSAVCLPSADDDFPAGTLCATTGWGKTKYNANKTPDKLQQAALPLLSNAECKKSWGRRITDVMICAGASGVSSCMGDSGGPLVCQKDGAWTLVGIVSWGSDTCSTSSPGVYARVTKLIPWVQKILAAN

[8] = molecular target: T2, Complement factor C1s (Calbiochem) (human) (UniProt P09871)
T2 sequence (looked up): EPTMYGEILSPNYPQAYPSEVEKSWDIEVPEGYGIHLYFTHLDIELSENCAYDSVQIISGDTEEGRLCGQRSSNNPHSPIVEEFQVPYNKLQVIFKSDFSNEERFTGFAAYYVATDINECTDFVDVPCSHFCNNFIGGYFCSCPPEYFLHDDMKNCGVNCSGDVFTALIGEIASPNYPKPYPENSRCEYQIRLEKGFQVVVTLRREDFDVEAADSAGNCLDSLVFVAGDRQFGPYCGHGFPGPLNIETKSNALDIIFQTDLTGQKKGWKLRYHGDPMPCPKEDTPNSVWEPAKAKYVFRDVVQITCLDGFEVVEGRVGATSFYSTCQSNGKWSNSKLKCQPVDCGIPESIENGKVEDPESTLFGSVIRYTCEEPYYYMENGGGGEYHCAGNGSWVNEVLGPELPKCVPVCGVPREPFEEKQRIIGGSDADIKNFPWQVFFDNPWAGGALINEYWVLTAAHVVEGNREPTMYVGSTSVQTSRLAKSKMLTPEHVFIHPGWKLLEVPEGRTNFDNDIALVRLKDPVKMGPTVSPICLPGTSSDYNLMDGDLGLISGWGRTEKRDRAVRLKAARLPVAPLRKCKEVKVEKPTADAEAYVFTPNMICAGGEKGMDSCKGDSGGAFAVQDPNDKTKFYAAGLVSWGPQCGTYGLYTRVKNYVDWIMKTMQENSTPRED

uPA (Chemicon) (human) = uPA (Chemicon) (human) (UniProt P00749)
[9] = molecular target: Factor XIa (Haematologic Technologies) (human) (UniProt P03951)
[10] = molecular target: Factor XIIa (American Diagnostica) (human) (UniProt P00748)
Sequence of Factor XIIa (American Diagnostica) (human) (P00748 20-615 limits assumed): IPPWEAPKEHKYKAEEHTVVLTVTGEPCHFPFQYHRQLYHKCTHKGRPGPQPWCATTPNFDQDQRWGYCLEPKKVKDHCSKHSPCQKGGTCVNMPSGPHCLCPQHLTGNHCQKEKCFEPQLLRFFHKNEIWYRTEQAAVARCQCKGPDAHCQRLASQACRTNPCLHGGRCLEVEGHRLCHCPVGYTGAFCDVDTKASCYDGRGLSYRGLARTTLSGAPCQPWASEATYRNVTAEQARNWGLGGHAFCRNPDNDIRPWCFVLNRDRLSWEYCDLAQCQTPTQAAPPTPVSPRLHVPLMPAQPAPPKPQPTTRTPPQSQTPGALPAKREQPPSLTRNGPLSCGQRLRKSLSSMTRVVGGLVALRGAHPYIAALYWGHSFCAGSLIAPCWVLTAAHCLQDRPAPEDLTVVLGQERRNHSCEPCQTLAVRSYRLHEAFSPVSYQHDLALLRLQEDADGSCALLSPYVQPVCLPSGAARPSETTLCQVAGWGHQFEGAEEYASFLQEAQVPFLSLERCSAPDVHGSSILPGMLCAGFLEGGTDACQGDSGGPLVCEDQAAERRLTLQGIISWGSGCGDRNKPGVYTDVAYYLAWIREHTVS

[11] = molecular target: Activated Protein C (Haematologic Technologies) (human) (UniProt P04070)
Sequence of Activated Protein C (Haematologic Technologies) (human) (P04070 43-197, form in doubt, chain 1 of 2): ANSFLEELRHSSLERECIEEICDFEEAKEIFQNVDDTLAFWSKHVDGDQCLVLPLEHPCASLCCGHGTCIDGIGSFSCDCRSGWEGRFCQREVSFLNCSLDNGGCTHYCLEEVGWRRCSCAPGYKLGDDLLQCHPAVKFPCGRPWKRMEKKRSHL
Sequence of Activated Protein C (Haematologic Technologies) (human) (P04070 212-461, form in doubt, chain 2 of 2): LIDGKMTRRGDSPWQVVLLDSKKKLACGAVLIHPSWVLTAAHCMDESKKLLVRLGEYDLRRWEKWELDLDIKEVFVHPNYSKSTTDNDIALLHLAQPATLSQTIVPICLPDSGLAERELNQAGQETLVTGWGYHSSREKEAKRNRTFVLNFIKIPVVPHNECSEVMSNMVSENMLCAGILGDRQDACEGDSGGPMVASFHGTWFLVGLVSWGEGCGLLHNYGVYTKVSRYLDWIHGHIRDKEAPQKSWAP

[12] = molecular target: tPA (Activase, Genentech) (human) (UniProt P00750)
[13] = molecular target: Hepsin (residues 45-417) (human) (UniProt P05981)
Sequence of Hepsin (residues 45-417) (human) (P05981 45-417 limits assumed): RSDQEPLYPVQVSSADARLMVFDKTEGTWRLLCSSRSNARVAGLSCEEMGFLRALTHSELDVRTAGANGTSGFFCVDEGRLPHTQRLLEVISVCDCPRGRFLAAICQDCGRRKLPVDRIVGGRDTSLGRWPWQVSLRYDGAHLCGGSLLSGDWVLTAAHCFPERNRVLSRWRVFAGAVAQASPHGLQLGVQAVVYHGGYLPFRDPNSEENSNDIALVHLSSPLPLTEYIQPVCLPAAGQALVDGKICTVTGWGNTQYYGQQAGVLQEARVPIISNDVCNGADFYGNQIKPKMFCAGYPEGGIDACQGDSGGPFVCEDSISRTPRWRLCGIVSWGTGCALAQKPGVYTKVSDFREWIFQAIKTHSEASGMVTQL

[14] = molecular target: Thrombin (Haematologic Technologies) (human) (UniProt P00734)
[15] = molecular target: Plasmin (Haematologic Technologies) (human) (UniProt P00747)
Sequence of Plasmin (Haematologic Technologies) (human) (P00747 97-810 limits assumed): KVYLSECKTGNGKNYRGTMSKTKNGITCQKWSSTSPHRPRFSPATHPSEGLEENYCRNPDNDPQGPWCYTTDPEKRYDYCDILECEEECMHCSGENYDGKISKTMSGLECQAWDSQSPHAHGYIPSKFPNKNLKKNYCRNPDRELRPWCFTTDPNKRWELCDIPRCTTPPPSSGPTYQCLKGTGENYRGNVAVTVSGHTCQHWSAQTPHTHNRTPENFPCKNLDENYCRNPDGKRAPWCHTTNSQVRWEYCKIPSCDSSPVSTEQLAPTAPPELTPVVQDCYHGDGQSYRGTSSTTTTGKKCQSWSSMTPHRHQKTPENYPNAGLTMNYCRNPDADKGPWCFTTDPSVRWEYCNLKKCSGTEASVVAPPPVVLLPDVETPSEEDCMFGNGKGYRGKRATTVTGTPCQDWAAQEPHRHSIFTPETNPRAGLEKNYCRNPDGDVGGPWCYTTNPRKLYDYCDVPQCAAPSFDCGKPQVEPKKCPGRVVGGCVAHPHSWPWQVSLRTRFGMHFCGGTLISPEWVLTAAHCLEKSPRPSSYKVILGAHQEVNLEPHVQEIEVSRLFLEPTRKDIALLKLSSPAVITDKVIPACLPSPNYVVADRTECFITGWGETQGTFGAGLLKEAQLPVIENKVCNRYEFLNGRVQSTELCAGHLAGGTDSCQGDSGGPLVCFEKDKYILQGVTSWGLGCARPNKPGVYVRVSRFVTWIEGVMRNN

Sequence of sHAI-1B, soluble HAI-1B ectodomain (O43278 36-465 limits assumed): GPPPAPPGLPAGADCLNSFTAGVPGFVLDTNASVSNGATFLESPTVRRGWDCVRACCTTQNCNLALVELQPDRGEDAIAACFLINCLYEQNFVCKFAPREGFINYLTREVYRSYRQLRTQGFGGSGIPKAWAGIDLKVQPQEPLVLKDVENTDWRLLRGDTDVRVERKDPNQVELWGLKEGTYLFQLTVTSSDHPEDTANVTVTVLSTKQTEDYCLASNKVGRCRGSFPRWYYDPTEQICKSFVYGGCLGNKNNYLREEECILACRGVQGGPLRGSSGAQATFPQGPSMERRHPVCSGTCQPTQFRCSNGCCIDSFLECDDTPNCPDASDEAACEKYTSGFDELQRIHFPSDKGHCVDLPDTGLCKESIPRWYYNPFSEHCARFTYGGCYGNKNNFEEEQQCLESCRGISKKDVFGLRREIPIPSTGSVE
Sequence of Bovine trypsin (Worthington) (bovine) (P00760 24-246): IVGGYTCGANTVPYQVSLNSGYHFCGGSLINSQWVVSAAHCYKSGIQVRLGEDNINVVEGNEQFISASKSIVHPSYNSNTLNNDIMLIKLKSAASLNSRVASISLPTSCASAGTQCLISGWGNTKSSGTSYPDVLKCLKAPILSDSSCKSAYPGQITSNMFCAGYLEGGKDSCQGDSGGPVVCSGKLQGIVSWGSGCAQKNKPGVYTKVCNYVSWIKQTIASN
Sequence of Tissue factor/factor VIIa complex: human tissue factor (residues 1-219) with human recombinant FVIIa (human) (P13726 33-251 limits assumed, chain 1 of 2): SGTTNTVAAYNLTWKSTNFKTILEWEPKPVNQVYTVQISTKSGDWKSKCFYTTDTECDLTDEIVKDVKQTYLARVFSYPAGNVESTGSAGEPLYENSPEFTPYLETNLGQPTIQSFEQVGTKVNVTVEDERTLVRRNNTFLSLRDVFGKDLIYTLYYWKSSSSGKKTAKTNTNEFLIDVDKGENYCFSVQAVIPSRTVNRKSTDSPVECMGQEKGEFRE
Sequence of Tissue factor/factor VIIa complex: human tissue factor (residues 1-219) with human recombinant FVIIa (human) (P08709 61-466 limits assumed, chain 2 of 2, further chain): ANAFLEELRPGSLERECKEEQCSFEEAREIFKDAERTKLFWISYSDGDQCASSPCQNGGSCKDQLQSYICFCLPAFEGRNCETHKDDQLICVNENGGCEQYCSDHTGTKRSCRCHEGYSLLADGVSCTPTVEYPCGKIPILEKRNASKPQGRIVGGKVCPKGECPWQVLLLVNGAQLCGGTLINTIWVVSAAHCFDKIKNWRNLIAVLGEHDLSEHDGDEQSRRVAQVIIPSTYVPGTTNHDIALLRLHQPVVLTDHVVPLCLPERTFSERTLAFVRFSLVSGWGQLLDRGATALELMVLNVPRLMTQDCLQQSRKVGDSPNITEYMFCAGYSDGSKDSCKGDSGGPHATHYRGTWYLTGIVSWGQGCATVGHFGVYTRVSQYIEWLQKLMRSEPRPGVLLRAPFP

sHAI-1B, soluble HAI-1B ectodomain (from UniProt O43278 36-465)
IC50 (nM), inhibition of enzyme activity on chromogenic substrate [1]: 2.4 nM | IC50 (sHAI-1B)/IC50 (KD1) [1]: 3 | IC50 (nM), inhibition of enzyme activity on chromogenic substrate [2]: > 2000 nM | IC50 (nM), inhibition of enzyme activity on chromogenic substrate [3]: > 2000 nM | IC50 (nM), inhibition of enzyme activity on chromogenic substrate [4]: 16.5 nM | IC50 (sHAI-1B)/IC50 (KD1) [4]: 10 | IC50 (nM), inhibition of enzyme activity on chromogenic substrate [5]: 30.5 nM | IC50 (sHAI-1B)/IC50 (KD1) [5]: 8 | IC50 (nM), inhibition of enzyme activity on chromogenic substrate [6]: 686 nM | IC50 (sHAI-1B)/IC50 (KD1) [6]: 33 | IC50 (nM), inhibition of enzyme activity on chromogenic substrate [7]: > 2000 nM | IC50 (nM), inhibition of enzyme activity on chromogenic substrate [8]: > 2000 nM | IC50 (nM), inhibition of enzyme activity on chromogenic substrate (uPA (Chemicon) (human)): > 2000 nM | IC50 (nM), inhibition of enzyme activity on chromogenic substrate [9]: > 2000 nM | IC50 (nM), inhibition of enzyme activity on chromogenic substrate [10]: > 2000 nM | IC50 (nM), inhibition of enzyme activity on chromogenic substrate [11]: > 2000 nM | IC50 (nM), inhibition of enzyme activity on chromogenic substrate [12]: > 2000 nM | IC50 (nM), inhibition of enzyme activity on chromogenic substrate [13]: 21.1 nM | IC50 (sHAI-1B)/IC50 (KD1) [13]: 3 | IC50 (nM), inhibition of enzyme activity on chromogenic substrate [14]: > 2000 nM | IC50 (nM), inhibition of enzyme activity on chromogenic substrate [15]: 399 nM | IC50 (sHAI-1B)/IC50 (KD1) [15]: 3
